Consider 6 molecules from US12312397B2, “Anti-O2 antibodies and uses thereof” (priority 2016, dated 2025).

In assay [1] the test system is O1 LPS activation of NF-κB in RAW264.7-lux cells. As to the kind of experiment: LPS neutralization assay (NF-κB luciferase, RAW264.7-lux), O1 LPS. Format: cell-based, murine. As to conditions: human IgG1 format. How it is done: (§1) Activation of TLR4 receptors by bacterial LPS leads to downstream activation of the NF-κB transcriptional regulator. A decrease in induction of NF-κB-responsive luciferase activity was used to quantify LPS neutralization activity by LPS mAbs. A murine RAW264.7 macrophage cell line was engineered to carry a firefly luciferase reporter gene under the control of an NF-κB-responsive promoter (RAW264.7-lux). Serially diluted antibody stocks were mixed with LPS in a 1:1 ratio and incubated at 4° C. for 1 hr. Antibody/LPS mixtures were then diluted 1:10 into assay plates containing pre-seeded RAW264.7-lux cells (4e5 cells/well), which were then placed at 37° C. with 5% CO2 for 2.5 hours. Following incubations, Steady Glo solution (Promega) was added to each well and incubated for another 20 min protected from light. The relative light units (RLUs) were measured using a multi-mode microplate reader (Synergy 2, Biotek or envision multilabel plate reader, Perkin Elmer). The percentage of inhibition was determined by comparing RLU derived from assays with no antibodies to RLU derived from assays with anti-K. pneumoniae mAbs and assays performed with a negative control mAb. […] All mAbs were tested in human IgG1 format.

In assay [2] the test system is O2 LPS activation of NF-κB in RAW264.7-lux cells. Nature of the assay: LPS neutralization assay (NF-κB luciferase, RAW264.7-lux), O2 LPS. More on the design: key to LPS Neut O2: +++: Strongly positive activity; +: Positive activity; +/−: Somewhat positive depending upon the test conditions. Format: cell-based, murine. The procedure: as §1
Assay [3] concerns K. pneumoniae 8570ΔcpsBLux (O2). Nature of the assay: Opsonophagocytic killing (OPK) assay, O2 capsule mutant. Type of assay: cell-based, Klebsiella pneumoniae. Also noted: key to D Capsule OPK O2: +++: Strongly positive activity; +: Positive activity; +/−: Somewhat positive depending upon the test conditions. The settings on record: for D Capsule OPK O2: capsule mutant strain 8570ΔcpsB lux (O2). How it is done:
OPK activity of anti-O2 LPS mAbs was tested against O1 and O2 strains. Briefly, log phase cultures of luminescent K. pneumoniae strains 8570ΔcpsBLux (O2) and 43816ΔcpsBLux (O1) were diluted to ˜2×10^6 cells/ml. K. pneumoniae cells, 5e5/well dimethylformamide (DMF) differentiated HL-60 cells, cleared baby rabbit serum (1:10 Cedarlane), and a series dilution of antibodies (2 ng-2.5 μg/mL) were mixed in 96-well plates and incubated at 37° C. for two hours with shaking (250 rpm). The relative light units (RLUs) were then measured using a multi-mode microplate reader (Synergy 2, Biotek or envision multilabel plate reader, Perkin Elmer). The percentage of killing was determined by comparing RLU derived from assays with no antibodies to RLU derived from assays with anti-K. pneumoniae mAbs and assays performed with a negative control mAb. Positive killing was determined where the percentage of killing is above 40%.

The next assay relates to O2 LPS. Nature of the assay: ELISA binding to O2 LPS. More on the design: species or system Klebsiella pneumoniae. The settings on record: for binding to O2 LPS compared to parent antibody: sequence-optimized variants, FIG. 9. The procedure:
The coated plates were incubated with cell culture supernatants from polyclonally stimulated lymphocytes (AMVBRA) or from monoclonal immortalized B cells (donor interrogations) containing fully human antibodies or with diluted plasma samples (PBMC donor selections) for 1 hour at room temperature. The plates were then washed with PBS containing 0.1% Tween-20 (PBS-T). Secondary antibody was added; either Alkaline Phosphatase-conjugated Goat Anti-Human IgG-AP (Southern Biotech, 2040-04, 1:1000 in PBS-B) or Peroxidase AffiniPure F(ab′)2 Fragment Goat Anti-Human IgG, Fc Fragment Specific (Jackson ImmunoResearch #309 036 098, 1:5000 in PBS-B) were used. Secondary antibodies were typically incubated for 1 h. Plates were washed three times with PBS-T, and P-NitroPhenyl Phosphate (pNPP, Sigma-Aldrich, cat #N2765-100TAB) or Sureblue (KPL, 53-00-03) substrates were added and incubated for 10 min or until the development of a colorimetric reaction. In the case of the HRP substrate Sureblue, the reaction was stopped by adding an equal volume of 0.2N HCl. The absorbance at 405 nm (pNPP) or 450 nm (Sureblue) was measured by a microplate reader (Biotek, Elx808).
The coated plates were incubated with serial dilutions of the monoclonal antibodies for 1 hour at room temperature. The plates were then washed with PBS containing 0.1% Tween-20 (PBS-T). Alkaline Phosphatase-conjugated Goat Anti-Human IgG (Southern Biotech, 2040-04, 1:1000 in PBS-B) was added. The secondary antibody reactions were incubated for 1 h. Plates were washed three times with PBS-T, and P-NitroPhenyl Phosphate (pNPP, Sigma-Aldrich, cat #N2765-100TAB) substrate was added and incubated for 30 min or until the development of a colorimetric reaction. The absorbance at 405 nm was measured by a microplate reader (Biotek, Elx808). The data was plotted with Graphpad Prism software. Representative mAbs from each class were tested for their binding to O1 LPS (FIG. 2A) and O2 LPS (FIG. 2B), and EC50 values were obtained (FIG. 2C). The majority of the anti-O2 LPS mAbs bound to both O1 and O2 LPS by ELISA. […] None of these LPS mAbs bound to the 03, 04, 05, 07, or 012 LPS serotypes (see e.g., FIG. 1A).

B1: KPS3: Class III anti-O2 antigen human mAb; VH SEQ ID NO: 35, VL SEQ ID NO: 36 (antibody, V domains shown)
VH: QGQLVDSGGGVVQRGGSQRLSCAASGFSFRDYGMHWVRQAPGKGLEWVAFISYDGRDQYYADSVKGRFIISRDNSKNTLSLQMNSLRPEDTAVYYCGPFYNPSLYYPPWGHGLPVIVSS
VL: EVVLTQSPATLSLSPGERATLSCRASQSISSQLAWYQQKPGQAPRLLIHDASNRDTGVPDRFSGSGSGTDFTLTISSLEPEDFAMYYCLQRNNWPPWTFGQGTKVEIK
modifications: Description of Artificial Sequence: SyntheticKPS3 VH polypeptide; Description of Artificial Sequence: SyntheticKPS3 VL polypeptide
As to B1, the “neutralizing activity against O1 LPS (NF-κB activation)” value in assay [1] is listed as “no activity”. In addition, in assay [2] (Table 7 summary), the “LPS Neut O2” value was “+/−”. Moreover, the “neutralizing activity against O2 LPS (NF-κB activation)” value in assay [2] (human IgG1 format) is reported as “moderate neutralizing activity”. For the same molecule, in assay [2] (secondary screening), the “neutralization of LPS-O2” value is reported as “neutralized”. In addition, the “D Capsule OPK O2” value in assay [3] is listed as “+++”. Also, in assay [3] (secondary screening), the “OPK activity against O2 capsule mutant” value is “strong OPK activity”. Also, in the assay with O2 LPS (secondary screening, ELISA), the “binding to LPS-O2” value is recorded as “bound specifically”.

B2: 6F6: Class I mouse hybridoma anti-O2 mAb (Ms IgM); VH SEQ ID NO: 80, VL SEQ ID NO: 81 (antibody, V domains shown)
VH: QVHLQQSGSELRSPGSSVKLSCKDFDSDVFPIAYMGWIRQQPGHGFDWIGDILPNIGRTIYGEKFEDKATLDADTVSNTAYLELSSLTSEDSAIYYCARRGTSGAMDYWGQGTSVTVSS
VL: DVVMTQTPLFLPVSLGDQASISCRSSQGLVHSTGNTFLHWYLQKPGQSPKLLIYKVSNRFSGVPDRFSGSGSGTDFTLKISRVEAEDLGIYFCSQSTHIPYTFGGGTKLEIK
modifications: Description of Artificial Sequence: Synthetic6F6 VH polypeptide; Description of Artificial Sequence: Synthetic6F6 VL polypeptide
Consider B2, for which the “D Capsule OPK O2” value in assay [3] is on record as “+”.

B3: antibody C: sequence-optimized KPN179, all frameworks germlined; VH SEQ ID NO: 188, VL SEQ ID NO: 191 (antibody, V domains shown)
VH: EVQLVESGGGLVKPGGSLRLSCAASGFTFSNAWMNWVRQAPGKGLEWVGRIKRKADGETTDYAAPVKGRFTISRDDSKNTLYLQMNSLKTEDTAVYYCTTRIVTTNDYWGQGTLVTVSS
VL: QSALTQPRSVSGSPGQSVTISCTGTSSDVGYYDYVSWYQQHPGKAPKLMIYDVNKRPSGVPDRFSGSKSGNTASLTISGLQAEDEADYYCASYAGGDTFVFGTGTKVTVL
modifications: Description of Artificial Sequence: SyntheticKPN179-FR-GL N35S-VH/KPN179-FR-GL-C105A-VL VHpolypeptide; Description of Artificial Sequence: SyntheticKPN179-FR-GL N35S-VH/KPN179-FR-GL-C105A-VL VL polypeptide
With B3, the “binding to O2 LPS compared to parent antibody” value with O2 LPS is reported as “significantly reduced binding”.

B4: antibody A: sequence-optimized KPN42, all frameworks germlined; VH SEQ ID NO: 26, VL SEQ ID NO: 27 (antibody, V domains shown)
VH: EVQLVESGGGLVKPGGSLRLSCAASGFTFNDAWMNWVRQAPGKGLEWVGRIKKKHEGVTTDYAAPVKGRFTISRDDSKNTLYLQMNSLKTEDTAVYYCTTRIVTTNDYWGQGTLVTVSS
VL: QSALTQPRSVSGSPGQSVTISCTGTSSDVGAYDYVSWYQQHPGKAPKLMIYDVNKRPSGVPDRFSGSKSGNTASLTISGLQAEDEADYYCASYAGGDIFVFGTGTKVTVL
modifications: Description of Artificial Sequence: SyntheticKPN42-FR-GL-VH/KPN42-FR-GL-C105A-VL VH polypeptide; Description of Artificial Sequence: SyntheticKPN42-FR-GL-VH/KPN42-FR-GL-C105A-VL VL polypeptide
As for B4, the “binding to O2 LPS compared to parent antibody” value with O2 LPS is reported as “comparable binding”.

B5: antibody B: sequence-optimized KPN42; VH SEQ ID NO: 17, VL SEQ ID NO: 18 (antibody, V domains shown)
VH: EVQLVESGGGLVKPGGSLRLSCAASGFTFNDAWMNWVRQAPGKGLEWVGRIKKKHEGVTTDYPASVRGRFTISRDDSKNTVYLQMGRLRIEDTAIYYCTTRIVTTNDYWGQGTLVTVSS
VL: QSALTQPRSVSGSPGQSVTISCTGTSSDVGAYDYVSWYQQHPGKAPKLMIYDVNKRPSGVPDRFSGSKSGNTASLTISGLQAEDEADYYCASYAGGDIFVFGTGTKVTVL
modifications: Description of Artificial Sequence: SyntheticKPN42-v2016 VH polypeptide; Description of Artificial Sequence: SyntheticKPN42-v2016 VL polypeptide
Regarding B5, in the assay with O2 LPS, the “binding to O2 LPS compared to parent antibody” value was “comparable binding”.

B6: antibody D: sequence-optimized KPN179; VH SEQ ID NO: 187, VL SEQ ID NO: 190 (antibody, V domains shown)
VH: EVQLVESGGGLVKPGGSLRLSCAASGFTFSNAWMNWVRQAPGKGLEWVGRIKRKADGETTDYPASVKGRFTVSRDDSKNTIYLQMNSLKTEDTAIYYCTTRIVTTNDYWGQGTLVTVSS
VL: QSALTQPRSVSGSPGQSVTISCTGTSSDVGYYDYVSWYQQHPGKAPKLMIYDVNKRPSGVPDRFSGSKSGNTASLTISGLQAEDEADYYCASYAGGDTFVFGTGTKVTVL
modifications: Description of Artificial Sequence: SyntheticKPN179-FR-1-2-4-GL N35S-VH/KPN179-FR-GL-C105A-VL VHpolypeptide; Description of Artificial Sequence: SyntheticKPN179-FR-1-2-4-GL N35S-VH/KPN179-FR-GL-C105A-VL VLpolypeptide
Turning to B6, the “binding to O2 LPS compared to parent antibody” value in the assay with O2 LPS was “comparable binding”.
